T1: Human neutrophil elastase (Homo sapiens, UniProt P08246)
T1 construct: purchased CALBIOCHEM Type V
T1 sequence (P08246 30-267): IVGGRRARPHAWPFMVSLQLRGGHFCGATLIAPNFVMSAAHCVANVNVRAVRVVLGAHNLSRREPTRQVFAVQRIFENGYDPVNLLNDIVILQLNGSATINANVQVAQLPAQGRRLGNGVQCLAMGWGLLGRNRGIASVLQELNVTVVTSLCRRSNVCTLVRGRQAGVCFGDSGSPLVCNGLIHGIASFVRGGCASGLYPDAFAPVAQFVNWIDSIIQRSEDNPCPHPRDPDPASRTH

B1: UTI: urinary trypsin inhibitor purified from human urine (Mochida Pharmaceutical), used as positive control (protein)
chain: AVLPQEEEGSGGGQLVTEVTKKEDSCQLGYSAGPCMGMTSRYFYNGTSMACETFQYGGCMGNGNNFVTEKECLQTCRTVAACNLPIVRGPCRAFIQLWAFDAVKGKCVLFPYGGCQGNGNKFYSEKECREYCGVPGDGDEELLRFSN
modifications: glycoprotein (sugar moieties, as the filing says in general of UTI)
B2: TL66: polypeptide defined by formula 8; known enzyme-digested fragment of urinary trypsin inhibitor, made in E. coli JE5505 (pM551) (protein)
chain: TVAACNLPIVRGPCRAFIQLWAFDAVKGKCVLFPYGGCQGNGNKFYSEKECREYCGVPGDGDEELL
B3: TN70: polypeptide defined by the amino acid sequence of formula 3, purified from culture supernatant of E. coli JE5505 (pM552) (protein)
chain: TVAACNLPIVRGPCRAFIQLWAFDAVKGKCVLFPYGGCQGNGNKFYSEKECREYCGVPGDGDEELLRFSN

Assays:
human plasma kallikrein = target: T2, human plasma kallikrein (Homo sapiens, UniProt P03952); assay: Human plasma kallikrein-inhibiting activity, substrate S-2302; format: biochemical; settings: for human plasma kallikrein-inhibiting activity: purified sample, various concentrations, remaining activity vs buffer control (FIG. 17A-C)
T2 construct: purchased Sigma Chemical Co
T2 sequence (P03952 20-638): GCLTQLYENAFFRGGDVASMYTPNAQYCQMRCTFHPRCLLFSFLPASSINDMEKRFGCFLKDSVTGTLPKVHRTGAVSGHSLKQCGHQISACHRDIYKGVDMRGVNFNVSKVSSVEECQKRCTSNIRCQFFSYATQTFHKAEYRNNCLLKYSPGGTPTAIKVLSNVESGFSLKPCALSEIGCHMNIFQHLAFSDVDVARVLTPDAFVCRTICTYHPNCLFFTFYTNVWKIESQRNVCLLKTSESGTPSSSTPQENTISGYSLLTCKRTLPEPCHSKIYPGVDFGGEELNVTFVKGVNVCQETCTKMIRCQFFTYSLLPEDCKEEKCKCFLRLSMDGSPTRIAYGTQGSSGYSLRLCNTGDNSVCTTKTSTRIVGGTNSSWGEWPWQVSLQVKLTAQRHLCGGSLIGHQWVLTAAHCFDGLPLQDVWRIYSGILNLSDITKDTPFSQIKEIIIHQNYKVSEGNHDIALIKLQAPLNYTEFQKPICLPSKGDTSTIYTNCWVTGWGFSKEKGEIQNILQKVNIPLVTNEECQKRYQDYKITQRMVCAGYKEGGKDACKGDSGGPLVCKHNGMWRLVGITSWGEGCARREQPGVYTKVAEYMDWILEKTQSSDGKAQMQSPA
Procedure: The purified sample obtained in Example 1-(5) was dissolved in 100 μl of distilled water. Concentration of this solution was determined based on its bovine trypsin-inhibiting activity using the aforementioned UTI as a standard. The solution was then diluted to various concentration levels with 0.1% BSA/150 mM NaCl/50 mM Tris-HCl buffer (pH 8.3) for use in the activity measurement. The UTI was also diluted in the same manner. Using a synthetic compound S-2302 (Daiichi Pure Chemicals Co., Ltd.) as a substrate, human plasma kallikrein-inhibiting activities of the diluted test samples and the positive control were measured in accordance with the method of Ohno et al. (Ohno,H. et al., Thromb. Res., vol.19, pp.579-588, 1980) as follows.
0.26 U/ml solution of human plasma kallikrein (Sigma Chemical Co.) was diluted with 0.1% BSA/150 mM NaCl/50 mM Tris-HCl buffer (pH 8.3) to prepare 0.08 U/ml of plasma kallikrein solution. 4 mM solution of S-2302 was prepared by dissolving it in distilled water and the solution was further diluted with 0.1% BSA/150 mM NaCl/50 mM Tris-HCl buffer (pH 8.3) to prepare 2 mM solution of S-2302.
Next, 25 μl of the test sample or positive control was mixed with 75 μl of 0.1% BSA/150 mM NaCl/50 mM Tris-HCl buffer (pH 8.3) and 50 μl of the plasma kallikrein solution. After incubation at 37° C. for 10 minutes, 50 μl of the S-2302 solution was added to the mixture to start the reaction. The reaction was carried out at 37° C. for 8 minutes and then stopped by adding 25 μl of 50% acetic acid solution to the reaction mixture. Thereafter, absorbance at 405 nm was measured using a spectrophotometer.
In this instance, in order to eliminate absorbance of various solutions in the reaction mixture a blank solution was prepared by mixing 50 μl of the plasma kallikrein solution with 25 μl of 50% acetic acid and then with 25 μl of each test sample or the positive control, 75 μl of 0.1% BSA/150 mM NaCl/50 mM Tris-HCl buffer (pH 8.3) and with 50 μl of the S-2302 solution.
In this figure, human plasma kallikrein remaining activity was expressed by percentage based on the absorbance of a control reaction mixture in which 25 μl of 0.1% BSA/150 mM NaCl/50 mM Tris-HCl buffer (pH 8.3) was used instead of the test sample or the positive control.

[1] = target: T1, Human neutrophil elastase; assay: Human elastase-inhibiting activity, substrate STANA; format: biochemical; settings: purified sample, various concentrations; remaining activity vs buffer control (FIG. 15A-C)
Procedure: The purified sample obtained in Example 1-(5) was dissolved in 100 μl of distilled water. Concentration of this solution was determined based on its bovine trypsin-inhibiting activity using the UTI as a standard. The solution was then diluted to various concentration levels with 0.1% BSA/27 mM CaCl2 /133 mM Tris-HCl buffer (pH 7.5) for use in the activity measurement. The aforementioned UTI was also diluted in the same manner. Human elastase-inhibiting activities in the test samples and the positive control were measured in accordance with the method of Ogawa et al. (Ogawa, M. et al., Res. Commun. Chem. Pathol. Pharmacol., vol.55, pp.271-274, 1987) using a synthetic compound STANA (Peptide Institute Inc.) as a substrate.
Human neutrophil elastase (Type V, CALBIOCHEM) was dissolved in 27 mM CaCl2 /[…] Tris-HCl buffer (pH 7.5) to a concentration of 100 μg/ml and the solution was further diluted with 0.1% BSA/27 mM CaCl2 /133 mM Tris-HCl buffer (pH 7.5) to prepare 4 μg/ml of elastase solution. 100 mM solution of STANA was prepared by dissolving it in N-methyl-2-pyrrolidone and the solution was further diluted with 0.1% BSA/27 mM CaCl2 /133 mM Tris-HCl buffer (pH 7.5) to prepare 20 mM of STANA solution.
Next, 50 μl of the test sample or positive control was mixed with 50 μl of the elastase solution and 50 μl of 0.1% BSA/27 mM CaCl2 /133 mM Tris-HCl buffer (pH 7.5). After incubation at 37° C. for 10 minutes, 50 μl of the STANA solution was added to the mixture to start the reaction. The reaction was carried out at 37° C. for 20 minutes and then stopped by adding 50 μl of 50% acetic acid solution to the reaction mixture. Thereafter, absorbance at 405 nm was measured using a spectrophotometer.
In this instance, in order to eliminate absorbance of various solutions in the reaction mixture, a blank solution was prepared by mixing 50 μl of the elastase solution with 50 μl of 50% acetic acid and then with 50 μl of each test sample or the positive control, 50 μl of 0.1% BSA/27 mM CaCl2 /133 mM Tris-HCl buffer (pH 7.5) and with 50 μl of the STANA solution.
In this figure, human elastase remaining activity was expressed by percentage based on the absorbance of a control reaction mixture in which 50 μl of 0.1% BSA/27 mM CaCl2 /133 mM Tris-HCl buffer (pH 7.5) was used instead of the test sample or the positive control.

| Molecule | human plasma kallikrein-inhibiting activity (human plasma kallikrein) | human elastase-inhibiting activity [1] | plasma kallikrein-inhibiting activity (human plasma kallikrein; experiments of the inventors, stated in the background) |
| --- | --- | --- | --- |
| CC51: polypeptide defined by the amino acid sequence of formula 1, purified from culture supernatant of E. coli JE5505 (pM560) (CNLPIVRGPCRAFIQLWAFDAVKGKCVLFPYGGCQGNGNKFYSEKECREYC) | activity was found | activity was found | – |
| B1 | activity was not found | activity was found | no plasma kallikrein-inhibiting activity |
| B2 | activity was found | activity was found | – |
| B3 | activity was found | activity was found | – |

Source: patent publication US5792629A, “Isolated DNA encoding novel protease inhibitory polypeptide” (Mochida Pharmaceutical Co., Ltd., priority 1990, dated 1998)
